Values of other authors as cited in patent publication US20250241861A1, “Mechano-Sensitive Microcapsules For Drug Delivery” (The Trustees of the University of Pennsylvania, priority 2015, published 2025).

How the values were obtained:
[1] = test system: MMP activity in chondrocytes; details: 10 ng/ml, after inflammatory stimulation of chondrocytes
engineered cartilage = details: 10 ng/ml, 5 days post-injury

B1: TGF-β3: transforming growth factor beta, anabolic compound / chondrogenic factor (protein, UniProt P10600 301-412, looked up)
Transforming growth factor …: ALDTNYCFRNLEENCCVRPLYIDFRQDLGWKWVHEPKGYYANFCSGPCPYLRSADTTHSTVLGLYNTLNPEASASPCCVPQDLEPLTILYYVGRTPKVEQLSNMVVKSCKCS
Which results are given for B1?
MMP activity [1]: reduce MMP activity; reduction of GAG loss compared to injured controls (engineered cartilage): about 30%
